From article PMC9482650, “Quantitative fragmentomics allow affinity mapping of interactomes” (Nature Communications, 2022)

T1: PTPN13_1, Q12923
T1 sequence (Q12923 1088-1188, limits assumed, looked up): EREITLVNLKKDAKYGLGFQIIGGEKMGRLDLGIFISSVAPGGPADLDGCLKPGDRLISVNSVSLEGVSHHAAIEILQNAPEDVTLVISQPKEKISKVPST

T2: DLG3_1, Q92796
T2 sequence (Q92796 125-227, limits assumed, looked up): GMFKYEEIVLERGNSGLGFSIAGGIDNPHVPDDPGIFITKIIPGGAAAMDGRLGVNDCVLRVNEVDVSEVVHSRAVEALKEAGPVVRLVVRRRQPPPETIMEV

T3: NHERF3_4, Q5T2W1
T3 sequence (Q5T2W1 373-468, limits assumed, looked up): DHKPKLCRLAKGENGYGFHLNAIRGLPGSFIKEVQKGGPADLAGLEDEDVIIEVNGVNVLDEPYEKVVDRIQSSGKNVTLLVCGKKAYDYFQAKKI

T4: LRRC7, Q96NW7
T4 sequence (Q96NW7 1440-1537, limits assumed, looked up): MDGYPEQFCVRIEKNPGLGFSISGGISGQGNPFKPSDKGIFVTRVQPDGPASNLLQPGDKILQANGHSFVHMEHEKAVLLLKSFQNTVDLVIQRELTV

T5: DFNB31_2, Q9P202
T5 sequence (Q9P202 274-371, limits assumed, looked up): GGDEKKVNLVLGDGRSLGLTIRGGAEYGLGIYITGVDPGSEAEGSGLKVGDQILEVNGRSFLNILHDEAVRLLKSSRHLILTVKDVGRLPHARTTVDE

T6: APBA2_2, Q99767
T6 sequence (Q99767 654-744, limits assumed, looked up): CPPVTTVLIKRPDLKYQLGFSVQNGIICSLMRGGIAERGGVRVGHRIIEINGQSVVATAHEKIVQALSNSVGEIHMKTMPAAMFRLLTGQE

T7: ARHGAP21, Q5T5U3
T7 sequence (Q5T5U3 45-169, limits assumed, looked up): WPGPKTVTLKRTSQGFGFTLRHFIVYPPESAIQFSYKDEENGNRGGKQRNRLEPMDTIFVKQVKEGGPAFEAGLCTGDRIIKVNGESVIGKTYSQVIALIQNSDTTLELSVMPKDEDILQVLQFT

T8: SIPA1L2, Q9P2F8
T8 sequence (Q9P2F8 945-1036, limits assumed, looked up): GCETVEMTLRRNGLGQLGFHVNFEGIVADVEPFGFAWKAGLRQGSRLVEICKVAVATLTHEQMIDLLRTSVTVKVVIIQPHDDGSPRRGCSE

T9: NHERF3_1, Q5T2W1
T9 sequence (Q5T2W1 4-100, limits assumed, looked up): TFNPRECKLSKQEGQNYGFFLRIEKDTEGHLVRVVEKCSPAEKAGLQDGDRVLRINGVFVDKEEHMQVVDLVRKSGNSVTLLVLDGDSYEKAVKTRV

T10: NHERF3_3, Q5T2W1
T10 sequence (Q5T2W1 238-333, limits assumed, looked up): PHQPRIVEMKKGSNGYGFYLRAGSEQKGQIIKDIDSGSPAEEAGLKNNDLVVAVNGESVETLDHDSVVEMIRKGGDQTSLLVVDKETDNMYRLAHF

T11: APBA2_1, Q99767
T11 sequence (Q99767 563-664, limits assumed, looked up): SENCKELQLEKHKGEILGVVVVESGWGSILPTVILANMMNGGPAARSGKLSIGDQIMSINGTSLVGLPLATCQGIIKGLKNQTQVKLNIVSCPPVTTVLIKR

T12: GRIP1_7, Q9Y3R0
T12 sequence (Q9Y3R0 999-1096, limits assumed, looked up): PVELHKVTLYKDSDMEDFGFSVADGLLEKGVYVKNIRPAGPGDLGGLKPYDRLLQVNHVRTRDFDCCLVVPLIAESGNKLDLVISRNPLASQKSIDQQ

B1: TRPM1, Q7Z4N2 (peptide)
chain: KEKASTETEC
B2: FAM71C, Q8NEG0 (peptide)
chain: STYCDYTIEI
B3: NPSR1, Q6W5P4 (peptide)
chain: MQILSKPEFI
B4: FCHSD2, O94868 (peptide)
chain: KIEDVEITLV

Key:
Assay in all cases: holdup assay
Parameters in all cases: key: below the threshold = too weak to quantify, mostly under pKd 3.1 to 4
Details in all cases: plain residues with an end cap or a label only (N-terminal biotin on a linker: ado-ado)
PTPN13_1, Q12923 = target: T1, PTPN13_1, Q12923
DLG3_1, Q92796 = target: T2, DLG3_1, Q92796
HTRA2, O43464 = target: HTRA2, O43464
GRIP2_7, Q9C0E4 = target: GRIP2_7, Q9C0E4
GRID2IP_1, A4D2P6 = target: GRID2IP_1, A4D2P6
NHERF3_4, Q5T2W1 = target: T3, NHERF3_4, Q5T2W1
LRRC7, Q96NW7 = target: T4, LRRC7, Q96NW7
DFNB31_2, Q9P202 = target: T5, DFNB31_2, Q9P202
APBA2_2, Q99767 = target: T6, APBA2_2, Q99767
ARHGAP21, Q5T5U3 = target: T7, ARHGAP21, Q5T5U3
SIPA1L2, Q9P2F8 = target: T8, SIPA1L2, Q9P2F8
FRMPD4, Q14CM0 = target: FRMPD4, Q14CM0
NHERF3_1, Q5T2W1 = target: T9, NHERF3_1, Q5T2W1
NHERF3_3, Q5T2W1 = target: T10, NHERF3_3, Q5T2W1
APBA2_1, Q99767 = target: T11, APBA2_1, Q99767
DLG2_2, Q15700 = target: DLG2_2, Q15700
IL16_4, Q14005 = target: IL16_4, Q14005
MAGI2_2, Q86UL8 = target: MAGI2_2, Q86UL8
MAGI2_3, Q86UL8 = target: MAGI2_3, Q86UL8
GIPC2, Q8TF65 = target: GIPC2, Q8TF65
DLG1_3, Q12959 = target: DLG1_3, Q12959
Inadl_2, Q8NI35 = target: Inadl_2, Q8NI35
Inadl_5, Q8NI35 = target: Inadl_5, Q8NI35
GRIP1_7, Q9Y3R0 = target: T12, GRIP1_7, Q9Y3R0
DLG1_2, Q12959 = target: DLG1_2, Q12959
FRMPD2_1, Q68DX3 = target: FRMPD2_1, Q68DX3
Sequence of FRMPD2_1, Q68DX3 (Q68DX3 770-861): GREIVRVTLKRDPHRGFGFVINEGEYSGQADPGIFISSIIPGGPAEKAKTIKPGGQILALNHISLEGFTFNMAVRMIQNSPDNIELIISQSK

Sequence of IL16_4, Q14005 (Q14005 1229-1329): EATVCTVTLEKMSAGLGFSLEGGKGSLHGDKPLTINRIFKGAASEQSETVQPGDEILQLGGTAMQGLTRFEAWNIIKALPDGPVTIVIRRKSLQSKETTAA
Sequence of MAGI2_3, Q86UL8 (Q86UL8 600-682): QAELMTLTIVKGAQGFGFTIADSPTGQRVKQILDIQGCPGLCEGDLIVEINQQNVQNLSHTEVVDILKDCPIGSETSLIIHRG
Sequence of Inadl_5, Q8NI35 (Q8NI35 673-780): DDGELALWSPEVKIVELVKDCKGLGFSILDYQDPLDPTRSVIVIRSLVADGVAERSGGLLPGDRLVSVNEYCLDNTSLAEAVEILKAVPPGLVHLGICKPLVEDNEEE
Sequence of GRID2IP_1, A4D2P6 (A4D2P6 1-87): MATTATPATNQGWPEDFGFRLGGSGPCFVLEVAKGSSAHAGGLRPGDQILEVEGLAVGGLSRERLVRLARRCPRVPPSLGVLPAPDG
Sequence of DLG2_2, Q15700 (Q15700 189-283): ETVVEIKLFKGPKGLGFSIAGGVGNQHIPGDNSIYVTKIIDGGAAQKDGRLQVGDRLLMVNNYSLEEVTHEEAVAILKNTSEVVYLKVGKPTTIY
Sequence of GRIP2_7, Q9C0E4 (Q9C0E4 934-1023): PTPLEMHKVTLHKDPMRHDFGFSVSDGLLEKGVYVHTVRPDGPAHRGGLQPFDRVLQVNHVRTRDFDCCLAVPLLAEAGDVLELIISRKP
Sequence of Inadl_2, Q8NI35 (Q8NI35 238-335): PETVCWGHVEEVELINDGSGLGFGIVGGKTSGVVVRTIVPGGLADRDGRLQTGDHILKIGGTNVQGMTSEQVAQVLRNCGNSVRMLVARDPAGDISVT
Sequence of GIPC2, Q8TF65 (Q8TF65 112-203): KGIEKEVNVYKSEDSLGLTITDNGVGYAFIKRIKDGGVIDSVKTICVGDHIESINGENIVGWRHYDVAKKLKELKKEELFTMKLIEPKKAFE
Sequence of DLG1_3, Q12959 (Q12959 457-571): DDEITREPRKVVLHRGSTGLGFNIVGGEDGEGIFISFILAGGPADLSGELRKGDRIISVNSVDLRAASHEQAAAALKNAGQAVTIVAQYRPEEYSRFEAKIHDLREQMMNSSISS
Sequence of DLG1_2, Q12959 (Q12959 314-412): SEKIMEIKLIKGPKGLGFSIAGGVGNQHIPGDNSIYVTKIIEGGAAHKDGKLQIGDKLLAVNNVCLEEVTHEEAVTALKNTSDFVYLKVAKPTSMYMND
Sequence of HTRA2, O43464 (O43464 355-458): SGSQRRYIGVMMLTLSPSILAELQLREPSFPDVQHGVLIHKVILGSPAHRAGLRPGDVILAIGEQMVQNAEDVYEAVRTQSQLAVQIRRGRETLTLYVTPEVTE
Sequence of FRMPD4, Q14CM0 (Q14CM0 67-160): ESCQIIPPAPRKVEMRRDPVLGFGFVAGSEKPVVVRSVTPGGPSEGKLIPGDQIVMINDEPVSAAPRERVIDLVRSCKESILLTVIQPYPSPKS
Sequence of MAGI2_2, Q86UL8 (Q86UL8 410-522): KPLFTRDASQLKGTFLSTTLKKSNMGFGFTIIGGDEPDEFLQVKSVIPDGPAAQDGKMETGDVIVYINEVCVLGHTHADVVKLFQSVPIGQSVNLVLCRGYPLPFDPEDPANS

| Binder | pKd (PTPN13_1, Q12923) | pKd (DLG3_1, Q92796) | pKd (HTRA2, O43464) | pKd (GRIP2_7, Q9C0E4) | pKd (GRID2IP_1, A4D2P6) | pKd (NHERF3_4, Q5T2W1) | pKd (LRRC7, Q96NW7) | pKd (DFNB31_2, Q9P202) | pKd (APBA2_2, Q99767) | pKd (ARHGAP21, Q5T5U3) | pKd (SIPA1L2, Q9P2F8) | pKd (FRMPD4, Q14CM0) | pKd (NHERF3_1, Q5T2W1) | pKd (NHERF3_3, Q5T2W1) | pKd (APBA2_1, Q99767) | pKd (DLG2_2, Q15700) | pKd (IL16_4, Q14005) | pKd (MAGI2_2, Q86UL8) | pKd (MAGI2_3, Q86UL8) | pKd (GIPC2, Q8TF65) | other results |
| --- | --- | --- | --- | --- | --- | --- | --- | --- | --- | --- | --- | --- | --- | --- | --- | --- | --- | --- | --- | --- | --- |
| B1 | below the threshold | below the threshold | below the threshold | below the threshold | below the threshold | below the threshold | below the threshold | below the threshold | below the threshold | 3.97 | below the threshold | below the threshold | 3.64 | below the threshold | below the threshold | 3.52 | below the threshold | below the threshold | below the threshold | 4.1 | pKd (DLG1_3, Q12959): below the threshold; pKd (Inadl_2, Q8NI35): below the threshold; pKd (Inadl_5, Q8NI35): below the threshold; pKd (GRIP1_7, Q9Y3R0): below the threshold; pKd (DLG1_2, Q12959): 4.23; pKd (FRMPD2_1, Q68DX3): below the threshold |
| B2 | below the threshold | below the threshold | 3.85 | below the threshold | below the threshold | below the threshold | below the threshold | below the threshold | below the threshold | 4.13 | below the threshold | below the threshold | below the threshold | below the threshold | below the threshold | below the threshold | below the threshold | below the threshold | below the threshold | 3.49 | pKd (DLG1_3, Q12959): below the threshold; pKd (Inadl_2, Q8NI35): 3.51; pKd (Inadl_5, Q8NI35): below the threshold; pKd (GRIP1_7, Q9Y3R0): below the threshold; pKd (DLG1_2, Q12959): below the threshold; pKd (FRMPD2_1, Q68DX3): below the threshold |
| B3 | below the threshold | below the threshold | 3.72 | 3.69 | below the threshold | 3.51 | below the threshold | below the threshold | below the threshold | below the threshold | below the threshold | below the threshold | below the threshold | below the threshold | 3.74 | below the threshold | 3.7 | below the threshold | below the threshold | below the threshold | pKd (DLG1_3, Q12959): below the threshold; pKd (Inadl_2, Q8NI35): below the threshold; pKd (Inadl_5, Q8NI35): 3.53; pKd (GRIP1_7, Q9Y3R0): below the threshold; pKd (DLG1_2, Q12959): below the threshold; pKd (FRMPD2_1, Q68DX3): below the threshold |
| B4 | below the threshold | below the threshold | 3.93 | below the threshold | below the threshold | below the threshold | below the threshold | below the threshold | 3.51 | 4.01 | below the threshold | below the threshold | 4.13 | below the threshold | below the threshold | 3.74 | below the threshold | 3.77 | 4.52 | below the threshold | pKd (DLG1_3, Q12959): 3.59; pKd (Inadl_2, Q8NI35): 4.3; pKd (Inadl_5, Q8NI35): below the threshold; pKd (GRIP1_7, Q9Y3R0): below the threshold; pKd (DLG1_2, Q12959): 4.3; pKd (FRMPD2_1, Q68DX3): below the threshold |
